Laboratory results published in paper PMC4357707 (Nucleic Acids Research, 2015).

Experiments:
HYL1 = target: T1, HYL1 (Arabidopsis thaliana, UniProt O04492 1-419); test: EMSA
T1 sequence: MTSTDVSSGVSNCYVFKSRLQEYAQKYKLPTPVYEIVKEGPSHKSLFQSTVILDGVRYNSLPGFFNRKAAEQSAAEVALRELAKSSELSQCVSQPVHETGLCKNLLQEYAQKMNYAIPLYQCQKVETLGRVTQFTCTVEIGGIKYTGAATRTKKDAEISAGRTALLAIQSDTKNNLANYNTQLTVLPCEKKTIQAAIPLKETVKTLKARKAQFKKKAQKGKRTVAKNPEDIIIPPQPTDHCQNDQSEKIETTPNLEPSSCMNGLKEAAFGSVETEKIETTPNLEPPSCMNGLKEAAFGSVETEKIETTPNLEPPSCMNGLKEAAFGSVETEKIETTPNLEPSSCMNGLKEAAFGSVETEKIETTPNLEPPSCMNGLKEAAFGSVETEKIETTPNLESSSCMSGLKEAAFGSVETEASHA

HEN1 Δ38-45 = target: T2, HEN1 Δ38-45 (Arabidopsis thaliana, UniProt Q9C5Q8 1-37+=G+46-942, internal_change); test: EMSA
T2 sequence: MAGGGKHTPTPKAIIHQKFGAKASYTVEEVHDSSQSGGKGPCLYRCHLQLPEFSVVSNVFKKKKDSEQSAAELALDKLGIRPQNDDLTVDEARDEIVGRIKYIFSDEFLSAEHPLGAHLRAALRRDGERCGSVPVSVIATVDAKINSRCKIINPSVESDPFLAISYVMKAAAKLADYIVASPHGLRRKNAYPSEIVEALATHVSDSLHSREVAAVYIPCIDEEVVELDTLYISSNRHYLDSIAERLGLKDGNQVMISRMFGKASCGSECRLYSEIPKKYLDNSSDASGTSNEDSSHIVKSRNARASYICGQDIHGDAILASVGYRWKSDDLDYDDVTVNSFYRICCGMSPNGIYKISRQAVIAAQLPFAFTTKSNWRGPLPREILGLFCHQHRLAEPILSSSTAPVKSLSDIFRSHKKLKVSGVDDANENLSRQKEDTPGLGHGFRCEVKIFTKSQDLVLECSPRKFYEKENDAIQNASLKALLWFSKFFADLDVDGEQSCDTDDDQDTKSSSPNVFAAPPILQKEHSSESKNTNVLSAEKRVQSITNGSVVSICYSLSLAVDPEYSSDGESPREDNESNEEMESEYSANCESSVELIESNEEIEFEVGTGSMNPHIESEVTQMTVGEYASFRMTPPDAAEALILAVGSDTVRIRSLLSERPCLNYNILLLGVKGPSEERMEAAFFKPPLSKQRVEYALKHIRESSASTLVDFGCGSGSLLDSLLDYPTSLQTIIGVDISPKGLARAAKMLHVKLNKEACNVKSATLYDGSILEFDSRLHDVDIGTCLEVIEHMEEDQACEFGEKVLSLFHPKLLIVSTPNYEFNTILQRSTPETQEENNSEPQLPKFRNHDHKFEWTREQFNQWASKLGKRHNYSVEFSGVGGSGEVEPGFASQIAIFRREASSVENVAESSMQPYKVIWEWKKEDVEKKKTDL

B1: miR173/miR173* (dsRNA)
RNA 1: UUCGCUUGCAGAGAGAAAUCAC
RNA 2: GAUUCUCUGUGUAAGCGAAAG
- binding result (HYL1): binds
- Kd (HEN1 Δ38-45): 0.32 ± 0.04 nM
